In patent publication US12440573B2, “Antibody-conjugates for targeting of tumours expressing PTK7” (Synaffix B.V., priority 2022, dated 2025):
Marks after values point to notes of the source that are not given here.

Assays:
[1] = system: A431 (PTK7+, ATCC CRL-1555) cells; test: In vitro cytotoxicity, resazurin viability; assay type: cell-based; settings: 5 days incubation
Procedure: A431 (PTK7+, ATCC CRL-1555) cells were plated in 96-well plates (10000 cells in 150 μL/well) in DMEM (ATCC) supplemented with 10% fetal bovine serum (FBS) (Invitrogen) and incubated overnight in a humidified atmosphere at 37° C. and 5% CO2. ADCs were added in triplo in a square root of 10 dilution series to obtain a final concentration ranging from 100 nM-0.01 nM. The cells were incubated for 5 days in a humidified atmosphere at 37° C. and 5% CO2. The culture medium was replaced by 0.01 mg/mL resazurin (Sigma Aldrich) in DMEM supplemented with 10% FBS (200 μL/well). After approximately 4 hours in a humidified atmosphere at 37° C. and 5% CO2 the fluorescence was detected with a fluorescence plate reader (Infinite® M1000 Tecan) at 560 nm excitation and 590 nm emission. The relative fluorescent units (RFU) were normalized to cell viability percentage by setting wells without cells at 0% viability and wells with untreated cells at 100% viability (see FIG. 9). IC50 values for ADCs on A431 cells were calculated by non-linear regression using Graphpad prism software and are shown in the table below: […]

[2] = system: PTK7 expressing NCl—H446 tumor model; test: In vivo efficacy study, NCl—H446 xenograft, with Olaparib (Example 33); design: species or system BALB/c nude mice; settings: ADC 2.5 mg/kg single IV dose; Olaparib 50 mg/kg orally QD×21 days
Procedure: (§1) NCl—H446, lung cancer xenograft model cell line was maintained in vitro using RPMI-1640 medium supplemented with 10% FBS in humidified cell culture incubator at 37° C. with standard 5% CO2 specs. The cells in an exponential growth phase were harvested and counted for tumor inoculation.
BALB/c nude mice (female) of 7-9 weeks old received a subcutaneous injection in the right front flank region with 5×10^6 tumor cells in 0.1 ml of PBS mixed with Matrigel (1:1) for tumor development. When tumors reached an average size of 100-200 mm^3, randomization was performed into 5 groups of 8 mice and treatment began. Randomization will be performed based on “Matched distribution” method (Study Director™ Software, version 3.1.399.19). The date of randomization will be denoted as day 0.
(§2) Electronic caliper measurement were performed 2 times a week. Daily observations for clinical signs, food and water consumption, behavioral changes, animals were weighed 2 times per week. […]
(§3) Observation and data collection: After tumor cells inoculation, the animals are checked daily for morbidity and mortality. […] Tumor volumes are measured every 3-4 days in two dimensions using an caliper, and the volume data are expressed in mm3 using the formula: V=(L×W×W)/2, where V is tumor volume, L is tumor length (the longest tumor dimension) and W is tumor width (the longest tumor dimension perpendicular to L). […]

[3] = system: PTK7 expressing NCl—H446 tumor model; test: In vivo efficacy study, NCl—H446 xenograft (Example 30); design: species or system BALB/c nude mice; settings: single IV dose; cofetuzumab-3 2.59, 5.18, 10.36 mg/kg; cofetuzumab-5b 2.59, 5.18 mg/kg; cofetuzumab-Aur0101 2.33 mg/kg; up to t=44 days
Procedure: as §1
BALB/c nude mice (female) of 7-9 weeks old received a subcutaneous injection in the right front flank region with 5×10^6 tumor cells in 0.1 ml of PBS mixed with Matrigel (1:1) for tumor development. When tumors reached an average size of 100-200 mm^3, randomization was performed into 10 groups of 8 mice and treatment began. Randomization will be performed based on “Matched distribution” method (Study Director™ Software, version 3.1.399.19). The date of randomization will be denoted as day 0.
as §2
as §3, with “collection.” for “collection: After tumor cells inoculation, the animals are checked daily for morbidity and mortality.”

[4] = Stability of ADCs in human plasma (DAR by RP-UPLC); assay type: in vitro ADME
Procedure: (§4) General procedure for analytical RP-UPLC (DTT treated samples): Prior to RP-UPLC analysis, IgG (10 μL, 1 mg/mL in PBS pH 7.4) was added to 12.5 mM DTT, 100 mM TrisHCl pH 8.0 (40 μL) and incubated for 15 minutes at 37° C. The reaction was quenched by adding 49% acetonitrile, 49% water, 2% formic acid (50 μL). RP-UPLC analysis was performed on a Waters Acquity UPLC-SQD. The sample (5 μL) was injected with 0.4 mL/min onto Bioresolve RP mAb 2.1*150 mm 2.7 μm (Waters) with a column temperature of 70° C. A linear gradient was applied in 9 minutes from 30 to 54% acetonitrile in 0.1% TFA and water. Absorbance of eluted peaks was measured at 215 nm followed by automated integration (MassLynx, Waters) to determine reaction conversion.
(§5) Stability of ADCs in mice and human plasma was tested. Prior to the assay, the plasma was depleted from all IgG using CaptivA® Protein A agarose (1 mL agarose/mL serum). ADCs were added to the depleted human/mouse serum to a final concentration of 0.1 mg/mL followed by incubation at 37° C. At each time point, 0.5 mL was snap frozen and stored at −80° C. until further analysis. To isolate the ADCs after incubation, 20 μl CaptivA® Protein A agarose resin was added to the samples and incubated for 1 hour at room temperature. The resin was washed three times with PBS and subsequently 0.1 M Glycine-HCl pH 2.7 (0.4 mL) was added to elute the ADCs. After elution, the samples were immediately neutralized with 1.0 M Tris pH 8.0 (0.1 mL). The samples were spin-filtered against PBS for three times using Amicon Ultra spin-filter 0.5 mL MWCO 10 kDa (Merck Millipore) and the volume was reduced to 40 μL, yielding a final ADC concentration of approximately 1 mg/mL. Samples were analyzed on RP-UPLC (DTT reduced) to determine the DAR, tables below.

[5] = Stability of ADCs in mice plasma (DAR by RP-UPLC); assay type: in vitro ADME
Procedure: as §4, §5

[6] = human plasma, 0.1 mg/mL, 37° C.

“B12-3: B12(6-N3-GalNAc)2 conjugated with BCN—HS-PEG2-HS-(va-PAB-Ex)2 3; negative / isotype control ADC [reference compound]” showed an IC50 [1] greater than 100 nM.
With `O=C(c1cc(Cc2n[nH]c(=O)c3ccccc23)ccc1F)N1CCN(C(=O)C2CC2)CC1` [Olaparib] the “in vivo efficacy (tumor volume over time), single treatment” value [2] was “no significant effect”.
For “cofetuzumab-5b: cofetuzumab(6-N3-GalNAc)2 conjugated with BCN—HS-vc-PABC-calicheamicin 5b; average DAR 1.93”, the “in vivo efficacy (tumor volume over time)” value [3] was “tumor growth delay” and the IC50 [1] was 0.1 nM.
For “cofetuzumab-Aur0101: TCEP-reduced cofetuzumab conjugated with Auristatin0101; average DAR 4.3; conventional comparator ADC [reference compound]”, the “DAR t = 0” value ([4]; human plasma table, direct measurement (not through isolation from plasma with protA agarose resin)) was 4.21*, the “DAR t = 3” value [4, 6] was 3.61 and the “DAR t = 14” value [4, 6] was 2.67. For the same compound, the “DAR t = 14, % of t = 0” value [4, 6] was 63%, the “in vivo efficacy (tumor volume over time)” value [3] was “only marginal tumor growth delay” and the “DAR t = 0” value ([5]; mice plasma table, direct measurement (not through isolation from plasma with protA agarose resin)) was 4.21*. The “DAR t = 1” value ([5]; mice plasma, 0.1 mg/mL, 37° C.) was 3.64, the “DAR t = 3” value ([5]; mice plasma, 0.1 mg/mL, 37° C.) was 3.26 and the “DAR t = 7” value ([5]; mice plasma, 0.1 mg/mL, 37° C.) was 2.46. For the same compound, the “DAR t = 7, % of t = 0” value ([5]; mice plasma, 0.1 mg/mL, 37° C.) was 58%.
